Laboratory results reported in paper PMC5085138, “Novel CD7-specific nanobody-based immunotoxins potently enhanced apoptosis of CD7-positive malignant cells” (Oncotarget, 2016).

B1: VHH6, CD7-specific nanobody (VHH)
VHH: DVQLQESGGGLVQAGGSLRLSCAVSGYPYSSYCMGWFRQAPGKEREGVAAIDSDGRTRYADSVKGRFTISQDNAKNTLYLQMNRMKPEDTAMYYCAARFGPMGCVDLSTLSFGHWGQGTQVTVSI
notes: Selected from a phage library of animals immunized with Jurkat cells (llama in the results, Camelus dromedarius in the methods); Monomer by SEC; also called parental nanobody; source: E. coli BL21 (DE3), pET28a, purified (Ni-NTA)
B2: VHH10, CD7-specific nanobody (VHH)
VHH: DVQLQESGGGSVQAGGSLRLSCAASGYTHSSYCMAWFRQAPGREREGVASIDSDGTTSYADSVKGRFTISQDNAKNTLYLQMNSLKPEDTAMYYCAARFGPMGCVDLSTLSFGHWGQGTQVTVSI
notes: source: E. coli BL21 (DE3), pET28a, purified (Ni-NTA)
B3: CD7 on CD7-positive T-cell lines Jurkat and CEM (receptor)
chain: AQEVQQSPHCTTVPVGASVNITCSTSGGLRGIYLRQLGPQPQDIIYYEDGVVPTTDRRFRGRIDFSGSQDNLTITMHRLQLSDTGTYTCQAITEVNVYGSGTLVLVTEEQSQGWHRCSDAPPRASALPAPPTGSALPDPQTASALPDPPAASALPAALAVISFLLGLGLGVACVLARTQIKKLCSWRDKNSAACVVYEDMSHSRCNTLSSPNQYQ
notes: CD7, cell surface glycoprotein of the immunoglobulin superfamily, endogenous on the human T-ALL cell lines Jurkat and CEM; Also used as the target in the functional rows on patient-derived primary AML and T-ALL cells; source: endogenous, on Jurkat and CEM cells

What was measured:
Conditions in all cases: one partner purified
[1] = molecular target: B3; assay: flow cytometry on cells; nanobody or immunotoxin at different concentrations incubated with Jurkat cells on ice; detected with APC anti-HA or Alexa Fluor 488 anti-His antibody; saturation curves, Scatchard plots, nonlinear regression (Prism)
[2] = molecular target: T1, PG001, monovalent CD7 nanobody-based immunotoxin (VHH6-PE38-KDEL) (Pseudomonas (species )); assay: flow cytometry on cells
T1 construct: also called pET28a-VHH6-PE38-KDEL; not shown: His6, N-terminal, kept

[3] = molecular target: T2, PG002, bivalent CD7 nanobody-based immunotoxin (dVHH6-PE38-KDEL) (Pseudomonas (species )); assay: flow cytometry on cells
T2 construct: also called pET28a-dVHH6-PE38-KDEL; not shown: His6, N-terminal, kept

| Binder | Kd [1] [µM] | Kd [2] [µM] | Kd [3] [µM] |
| --- | --- | --- | --- |
| B1 | 0.0154 | – | – |
| B2 | 0.0296 | – | – |
| B3 | – | 0.0167 | 0.00361 |
